Here are results for 5 molecules from patent US20220023385A1 (Stanford University, published 2022).

Assay [1] has as its target T1, human FGFR1 beta (IIIc)-Fc (R&D Systems) (human, UniProt P11362-14 22-285, limits assumed).
T1 construct: Bought reagent; also called FGFR1-Fc; soluble FGFR1-Fc; not shown: Fc domain, detected with anti-Human IgG
T1 sequence (looked up): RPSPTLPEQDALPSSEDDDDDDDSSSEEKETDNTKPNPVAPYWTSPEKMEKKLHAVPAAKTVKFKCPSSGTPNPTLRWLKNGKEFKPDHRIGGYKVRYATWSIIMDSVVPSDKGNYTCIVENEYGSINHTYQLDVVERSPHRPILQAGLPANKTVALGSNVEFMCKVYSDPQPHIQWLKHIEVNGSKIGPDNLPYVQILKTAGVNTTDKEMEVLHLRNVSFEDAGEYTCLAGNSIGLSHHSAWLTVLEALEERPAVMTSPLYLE
The assay is described as follows: flow cytometry on yeast displaying the peptide, stained for c-myc and FGFR1-Fc. As for the experimental part:
FIG. 15. Non-binding of peptide artifacts to FGFR1-Fc. Yeast cells expressing RTTTS or HTTS peptides on their cell surface were incubated with 10 nM FGFR1-Fc. Cells were stained with fluorescent antibodies for expression (α-c-myc) and binding (α-FGFR1-Fc).
50,000 induced yeast cells were incubated with various concentrations of FGFR1-Fc in phosphate-buffered saline with 1 g/L BSA (PBSA) at room temperature. Cells were incubated in sufficiently large volumes to avoid ligand depletion and long enough times (typically 3 to 24 hours) to reach equilibrium. During the last 30 minutes of incubation, yeast cells were incubated with 1:2500 dilution of chicken anti-c-Myc (Invitrogen) in PBSA. Yeast were pelleted, washed, then incubated with 1:200 dilution of secondary antibodies on ice for 10 min: anti-Human IgG-FITC (Sigma Aldrich) against FGFR1-Fc and anti-chicken-IgY-PE (Santa Cruz Biotechnology) against anti-c-myc. Yeast were washed, pelleted, and resuspended in PBSA immediately before analysis by flow cytometry using EMD Millipore Guava EasyCyte. Flow cytometry data were analyzed using FlowJo (v7.6.1). Binding curves were plotted and Kd values were obtained using GraphPad Prism 6.
For orientation: Flow cytometry measures light scatter and fluorescence of single cells or particles in a stream.

Assay [2] addresses T2, Met-Fc fusion protein (R&D Systems) labeled with Alexa 488 (UniProt P08581 25-932, Alexa 488 label).
T2 construct: Bought reagent; also called Met-Fc A488; soluble Met-Fc; not shown: Fc domain
In words: flow cytometry, yeast display, after heating to varying temperatures.

The target of assay [3] is Met receptor on MDCK cells. The assay is described as follows: cell-based or functional assay.
Met receptor on MDCK cells, sequence (Q75ZY9 whole entry): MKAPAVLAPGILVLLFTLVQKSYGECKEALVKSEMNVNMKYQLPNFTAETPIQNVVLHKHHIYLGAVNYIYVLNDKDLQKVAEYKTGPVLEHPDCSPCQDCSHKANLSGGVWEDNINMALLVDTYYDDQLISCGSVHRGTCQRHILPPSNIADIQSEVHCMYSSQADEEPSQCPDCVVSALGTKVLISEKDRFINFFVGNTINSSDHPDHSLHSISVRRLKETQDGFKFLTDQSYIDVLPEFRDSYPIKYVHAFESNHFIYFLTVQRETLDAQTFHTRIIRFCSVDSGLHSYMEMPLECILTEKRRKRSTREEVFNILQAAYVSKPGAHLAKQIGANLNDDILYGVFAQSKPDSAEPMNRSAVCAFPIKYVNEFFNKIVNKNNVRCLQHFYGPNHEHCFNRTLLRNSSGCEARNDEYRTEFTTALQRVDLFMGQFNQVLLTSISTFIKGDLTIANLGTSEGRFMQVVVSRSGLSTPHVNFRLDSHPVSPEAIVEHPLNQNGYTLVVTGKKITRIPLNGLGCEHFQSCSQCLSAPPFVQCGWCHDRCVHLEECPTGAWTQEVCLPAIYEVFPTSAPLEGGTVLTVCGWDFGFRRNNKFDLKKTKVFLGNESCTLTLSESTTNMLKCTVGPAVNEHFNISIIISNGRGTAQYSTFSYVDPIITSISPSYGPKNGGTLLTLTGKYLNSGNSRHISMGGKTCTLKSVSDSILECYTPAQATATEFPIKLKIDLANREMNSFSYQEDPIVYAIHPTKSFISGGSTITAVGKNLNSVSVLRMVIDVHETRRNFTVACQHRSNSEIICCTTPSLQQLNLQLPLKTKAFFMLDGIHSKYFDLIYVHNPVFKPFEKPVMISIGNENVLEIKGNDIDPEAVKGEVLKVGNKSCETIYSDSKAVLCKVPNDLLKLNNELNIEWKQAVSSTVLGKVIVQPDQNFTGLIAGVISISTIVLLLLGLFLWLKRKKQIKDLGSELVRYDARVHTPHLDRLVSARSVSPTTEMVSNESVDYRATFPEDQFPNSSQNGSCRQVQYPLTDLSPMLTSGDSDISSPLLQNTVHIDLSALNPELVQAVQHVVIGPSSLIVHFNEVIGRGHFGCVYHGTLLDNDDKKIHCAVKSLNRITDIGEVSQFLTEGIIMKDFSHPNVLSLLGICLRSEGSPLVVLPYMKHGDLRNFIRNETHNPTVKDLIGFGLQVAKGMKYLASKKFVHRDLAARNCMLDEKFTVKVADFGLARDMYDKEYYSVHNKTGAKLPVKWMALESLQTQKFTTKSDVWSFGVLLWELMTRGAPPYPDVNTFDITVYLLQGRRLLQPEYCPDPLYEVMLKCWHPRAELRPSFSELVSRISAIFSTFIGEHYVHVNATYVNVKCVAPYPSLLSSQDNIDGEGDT

T2 sequence (P08581 25-932 limits assumed): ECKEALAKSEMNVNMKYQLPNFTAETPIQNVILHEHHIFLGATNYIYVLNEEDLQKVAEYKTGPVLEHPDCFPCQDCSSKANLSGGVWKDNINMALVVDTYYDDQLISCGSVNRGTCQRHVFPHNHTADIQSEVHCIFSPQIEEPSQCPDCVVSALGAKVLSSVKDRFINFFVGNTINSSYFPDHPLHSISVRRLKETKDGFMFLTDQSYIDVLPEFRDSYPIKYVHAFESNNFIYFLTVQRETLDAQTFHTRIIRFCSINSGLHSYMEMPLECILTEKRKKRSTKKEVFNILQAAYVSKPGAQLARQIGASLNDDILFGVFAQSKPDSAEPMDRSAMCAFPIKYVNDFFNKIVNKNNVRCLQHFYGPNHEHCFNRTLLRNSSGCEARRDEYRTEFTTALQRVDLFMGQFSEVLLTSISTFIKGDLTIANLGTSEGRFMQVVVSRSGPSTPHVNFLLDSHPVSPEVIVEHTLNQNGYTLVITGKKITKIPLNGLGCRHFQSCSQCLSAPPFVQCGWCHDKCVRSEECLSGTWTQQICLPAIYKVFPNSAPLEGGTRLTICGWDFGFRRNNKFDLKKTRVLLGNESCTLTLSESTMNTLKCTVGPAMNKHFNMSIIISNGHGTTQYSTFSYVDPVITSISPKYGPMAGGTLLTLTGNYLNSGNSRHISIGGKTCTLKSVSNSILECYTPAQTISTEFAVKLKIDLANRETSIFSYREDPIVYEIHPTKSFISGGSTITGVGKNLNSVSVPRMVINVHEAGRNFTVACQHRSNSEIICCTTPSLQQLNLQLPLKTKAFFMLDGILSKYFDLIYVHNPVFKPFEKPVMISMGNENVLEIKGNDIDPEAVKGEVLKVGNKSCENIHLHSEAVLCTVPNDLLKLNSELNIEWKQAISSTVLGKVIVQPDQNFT

As for HTTS (also called peptide artifact) [HTTS peptide displayed on yeast], the binding result in assay [1] is “no binding (tested: 10 nM FGFR1-Fc)”.

B1: NK1 mutant M2.1 displayed on yeast (ligand)
chain: YAEGQRKRRNTIHEFKKSAKTTLIKIDPALKIKTEKVNTADQCANRCTRNKGLPFTCKAFVFDKARKQCLWFPFNSMSSGVKKEFGHEFDLYENKDYIRDCIIGKGRSYRGTVSITKSGIKCQPWSSMIPHEHSFLPSSYRGEDLQENYCRNPRGEEGGPWCFTSDPEVRYEVCDIPQCSEVE
notes: Yeast display fusion as for m10
With B1, the binding result in assay [2] was “binds”.

B2: NK1 mutant M2.2 displayed on yeast (ligand)
chain: YAEGQRKRRNTIHEFKKSAKTTLIKIDPALKIKTEKVNTADQCANRCTRNKGLPFTCKAFVFDKARKRCLWFPFNSMSSGVKKEFGHEFDLYENKDYIRDCIIGNGRSYRGTVSITKSGIKCQPWSSMIPHEHSFLPSSYRGEDLRENYCRNPRGEEGGPWCFTSDPEVRYEVCDIPQCSEVE
notes: as for B1
Turning to B2, the binding result in assay [2] was “binds”.

As to RTTTS (also called peptide artifact) [RTTTS peptide displayed on yeast], the binding result in assay [1] is “no binding (tested: 10 nM FGFR1-Fc)”.

B3: Aras-4 (ligand)
chain: YAEGQGKRRNTIHEFKKSAKTTLIKIDPALRIKTEKANTADQCANRCTRSKGLPFTCKAFVFDKARKRCLWFPFNSMSSGVKKEFGHEFDLYENKAYIRDCIIGRGRNYRGTVSITKSGIKCQPWSAMIPHEHSFLPSSYRGEDLRENYCRNPRGEEGGPWCYTSDPEVRYEVCDIPQCSEVE
On to B3, for which the “inhibition of HGF-induced activation of Met, concentration against M2.2 D127A or NK1 N127A” value in assay [3] was around 5 fold lower concentration.
